Test results taken from PMC9978625, “Activation of protein arginine methyltransferase 1 and subsequent extension of moth lifespan is effected by the ROS/JNK/CREB signaling axis”.

Molecular target: T1, CREB (Har-CREB) (Helicoverpa armigera, UniProt A0A3G1CVR7 1-265)
T1 sequence: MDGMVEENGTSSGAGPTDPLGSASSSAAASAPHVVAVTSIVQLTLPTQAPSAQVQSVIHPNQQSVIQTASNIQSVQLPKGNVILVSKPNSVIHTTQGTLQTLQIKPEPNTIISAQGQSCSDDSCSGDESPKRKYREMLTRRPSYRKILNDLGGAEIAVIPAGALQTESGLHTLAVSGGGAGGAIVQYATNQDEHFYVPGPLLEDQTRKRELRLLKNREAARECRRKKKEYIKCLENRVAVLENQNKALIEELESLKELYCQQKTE
Assay: EMSA; shift competed by 100-fold unlabeled PS; EMSA (LightShift): 20 ul, 50 ng/ul poly(dI-dC), 2.5% glycerol, 5 mM MgCl2, 0.05% NP40, 20 fmol biotin probe, RT 20 min; pH and salt not stated. MPS (S22/S23) and NS competitors were tested only with brain nuclear extract without supershift, so not listed
Conditions: protein: ivt; chain copies: 2; blunt

B1: PS (PRMT1 promoter-specific probe) (dsDNA)
DNA 1: CGTTTTTGATATGAGGAAAATGAGCTCTGCAA
DNA 2: TTGCAGAGCTCATTTTCCTCATATCAAAAACG
binding result: binds
